We go through one protein from patent US20100298612.

Series [1] concerns the target T1, Mycobacterium sp. (strain JLS) carboxylic acid reductase (CAR).
T1 chain: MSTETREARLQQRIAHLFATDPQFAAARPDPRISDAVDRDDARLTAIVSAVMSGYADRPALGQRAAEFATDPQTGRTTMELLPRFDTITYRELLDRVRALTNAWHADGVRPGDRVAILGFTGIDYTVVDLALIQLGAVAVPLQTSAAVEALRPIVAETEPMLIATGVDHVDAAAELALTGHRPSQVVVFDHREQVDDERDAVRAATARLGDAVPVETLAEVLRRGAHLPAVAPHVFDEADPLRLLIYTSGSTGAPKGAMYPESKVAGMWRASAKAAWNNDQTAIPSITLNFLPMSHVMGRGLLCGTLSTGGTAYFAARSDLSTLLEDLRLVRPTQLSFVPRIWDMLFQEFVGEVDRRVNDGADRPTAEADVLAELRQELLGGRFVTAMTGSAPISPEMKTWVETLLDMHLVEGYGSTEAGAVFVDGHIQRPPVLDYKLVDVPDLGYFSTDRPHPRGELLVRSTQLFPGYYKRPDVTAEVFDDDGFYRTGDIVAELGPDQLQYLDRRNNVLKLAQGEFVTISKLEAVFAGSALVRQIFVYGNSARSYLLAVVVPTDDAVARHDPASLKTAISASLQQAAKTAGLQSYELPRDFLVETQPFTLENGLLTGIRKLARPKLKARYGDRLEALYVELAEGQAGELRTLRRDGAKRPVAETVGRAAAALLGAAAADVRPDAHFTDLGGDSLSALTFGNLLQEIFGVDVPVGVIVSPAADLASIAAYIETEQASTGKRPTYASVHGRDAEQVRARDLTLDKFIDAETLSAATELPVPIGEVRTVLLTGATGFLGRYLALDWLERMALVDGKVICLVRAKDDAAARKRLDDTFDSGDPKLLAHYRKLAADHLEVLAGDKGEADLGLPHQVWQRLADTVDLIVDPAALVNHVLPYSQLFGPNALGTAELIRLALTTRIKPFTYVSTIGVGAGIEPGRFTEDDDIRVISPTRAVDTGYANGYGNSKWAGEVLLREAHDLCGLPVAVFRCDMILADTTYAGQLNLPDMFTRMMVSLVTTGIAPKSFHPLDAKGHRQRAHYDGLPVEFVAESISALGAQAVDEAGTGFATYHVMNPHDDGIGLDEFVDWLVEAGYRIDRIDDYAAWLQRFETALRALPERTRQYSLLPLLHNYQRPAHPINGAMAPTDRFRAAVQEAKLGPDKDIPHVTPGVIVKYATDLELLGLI

For series [2], the target named is T2, Nocardia NRRL5646 carboxylic acid reductase (CAR).
T2 chain: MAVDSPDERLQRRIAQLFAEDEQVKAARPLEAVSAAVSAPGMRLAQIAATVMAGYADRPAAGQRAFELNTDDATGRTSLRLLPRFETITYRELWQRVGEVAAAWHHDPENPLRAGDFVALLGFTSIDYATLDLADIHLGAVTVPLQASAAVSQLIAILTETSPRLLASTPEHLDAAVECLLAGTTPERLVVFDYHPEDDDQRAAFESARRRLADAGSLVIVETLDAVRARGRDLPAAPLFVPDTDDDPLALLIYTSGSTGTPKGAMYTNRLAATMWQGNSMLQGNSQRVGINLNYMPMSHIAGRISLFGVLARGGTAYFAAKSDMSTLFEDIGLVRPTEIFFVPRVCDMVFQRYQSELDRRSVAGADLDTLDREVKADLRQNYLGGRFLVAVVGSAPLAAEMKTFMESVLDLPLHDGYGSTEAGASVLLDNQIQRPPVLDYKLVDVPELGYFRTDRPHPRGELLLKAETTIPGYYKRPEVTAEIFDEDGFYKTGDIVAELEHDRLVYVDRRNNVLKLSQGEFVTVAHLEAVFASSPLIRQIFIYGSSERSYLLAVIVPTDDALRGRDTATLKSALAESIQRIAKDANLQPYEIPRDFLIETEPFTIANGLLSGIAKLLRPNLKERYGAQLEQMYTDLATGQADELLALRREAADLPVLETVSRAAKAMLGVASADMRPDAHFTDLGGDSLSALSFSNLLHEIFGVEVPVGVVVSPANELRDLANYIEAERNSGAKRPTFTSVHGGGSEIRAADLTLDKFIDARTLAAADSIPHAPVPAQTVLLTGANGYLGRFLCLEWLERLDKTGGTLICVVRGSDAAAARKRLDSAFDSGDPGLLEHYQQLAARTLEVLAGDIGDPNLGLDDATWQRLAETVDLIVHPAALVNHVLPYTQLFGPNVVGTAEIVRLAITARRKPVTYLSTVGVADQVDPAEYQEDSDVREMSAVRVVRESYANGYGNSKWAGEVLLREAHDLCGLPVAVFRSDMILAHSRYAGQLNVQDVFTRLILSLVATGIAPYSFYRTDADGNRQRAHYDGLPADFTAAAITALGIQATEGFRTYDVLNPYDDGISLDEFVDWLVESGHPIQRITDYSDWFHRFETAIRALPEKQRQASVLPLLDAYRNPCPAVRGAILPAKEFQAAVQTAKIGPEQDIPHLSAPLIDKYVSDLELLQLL

B1: Nocardia NRRL 5646 phosphopantetheinyl transferase (PPTase) (protein)
chain: MIETILPAGVESAELLEYPEDLKAHPAEEHLIAKSVEKRRRDFIGARHCARLALAELGEPPVAIGKGERGAPIWPRGVVGSLTHCDGYRAAAVAHKMRFRSIGIDAEPHATLPEGVLDSVSLPPEREWLKTTDSALHLDRLLFCAKEATYKAWWPLTARWLGFEEAHITFEIEDGSADSGNGTFHSELLVPGQTNDGGTPLLSFDGRWLIADGFILTAIAYA
In the case of B1, the results for the “CAR activity (in vitro conversion of hexadecanoic acid to 1-hexadecanol; Y. lipolytica CAR lysate pre-incubated with E. coli Nocardia PPTase lysate), fold improvement” value in series [1] and in series [2] were “by 9-20 times” and “by 3-5 times”, respectively.
